Changes are numbered by the printed parent chain.

The target of assay [1] is T1, recombinant human CD155-Fc fusion protein, WT (human, UniProt P15151 21-343).
T1 sequence (looked up): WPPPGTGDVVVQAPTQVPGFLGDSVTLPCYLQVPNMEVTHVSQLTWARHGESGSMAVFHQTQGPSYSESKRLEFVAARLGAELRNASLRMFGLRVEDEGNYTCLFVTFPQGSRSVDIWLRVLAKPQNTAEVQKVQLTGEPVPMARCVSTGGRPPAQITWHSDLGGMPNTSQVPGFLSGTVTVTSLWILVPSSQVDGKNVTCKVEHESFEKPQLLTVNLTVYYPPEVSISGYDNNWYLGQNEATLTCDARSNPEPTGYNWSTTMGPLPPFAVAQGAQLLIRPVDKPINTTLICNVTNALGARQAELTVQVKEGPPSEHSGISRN
The experiment in a line: BLI.

The target in assay [2] is T2, recombinant human CD155-Fc fusion protein, mutant (Ala67Thr) (human, UniProt P15151 21-343, Ala67Thr).
T2 sequence (looked up): T1 sequence (looked up) with A47T
Briefly: BLI. (In BLI a coated tip is dipped into the sample, and binding shifts an interference pattern.)

B1: His-tagged recombinant human DNAM-1 (receptor, UniProt Q15762 19-254, looked up)
chain: EEVLWHTSVPFAENMSLECVYPSMGILTQVEWFKIGTQQDSIAIFSPTHGMVIRKPYAERVYFLNSTMASNNMTLFFRNASEDDVGYYSCSLYTYPQGTWQKVIQVVQSDSFEAAVPSNSHIVSEPGKNVTLTCQPQMTWPVQAVRWEKIQPRQIDLLTYCNLVHGRNFTSKFPRQIVSNCSHGRWSVIVIPDVTVSDSGLYRCYLQASAGENETFVMRLTVAEGKTDNQYTLFVA
Turning to B1, the binding result in assay [1] and in assay [2] was “binds” in each case.

The record behind these values is paper PMC9633295 (Cancer Science, 2022).
